In article PMC9793311, “Negative cooperativity underlies dynamic assembly of the Par complex regulators Cdc42 and Par-3” (The Journal of Biological Chemistry, 2022):

T1: Par complex (Drosophila melanogaster, UniProt O97111 1-351; A1Z9X0 1-606)
T1 construct: atypical PKC (aPKC), Drosophila melanogaster, residues 1-606, from pCMV aPKC; also called Par-6/aPKC; intact Par complex
T1 sequence (looked up) 1: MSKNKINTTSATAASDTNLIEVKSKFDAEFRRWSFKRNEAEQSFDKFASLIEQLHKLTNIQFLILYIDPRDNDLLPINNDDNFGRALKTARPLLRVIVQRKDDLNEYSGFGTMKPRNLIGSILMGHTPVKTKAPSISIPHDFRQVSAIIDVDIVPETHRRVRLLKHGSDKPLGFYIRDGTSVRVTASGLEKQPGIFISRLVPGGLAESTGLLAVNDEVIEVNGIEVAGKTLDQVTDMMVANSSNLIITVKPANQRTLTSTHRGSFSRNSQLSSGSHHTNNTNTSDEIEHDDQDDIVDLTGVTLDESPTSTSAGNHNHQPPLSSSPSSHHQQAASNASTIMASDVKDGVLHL
T1 sequence (looked up) 2: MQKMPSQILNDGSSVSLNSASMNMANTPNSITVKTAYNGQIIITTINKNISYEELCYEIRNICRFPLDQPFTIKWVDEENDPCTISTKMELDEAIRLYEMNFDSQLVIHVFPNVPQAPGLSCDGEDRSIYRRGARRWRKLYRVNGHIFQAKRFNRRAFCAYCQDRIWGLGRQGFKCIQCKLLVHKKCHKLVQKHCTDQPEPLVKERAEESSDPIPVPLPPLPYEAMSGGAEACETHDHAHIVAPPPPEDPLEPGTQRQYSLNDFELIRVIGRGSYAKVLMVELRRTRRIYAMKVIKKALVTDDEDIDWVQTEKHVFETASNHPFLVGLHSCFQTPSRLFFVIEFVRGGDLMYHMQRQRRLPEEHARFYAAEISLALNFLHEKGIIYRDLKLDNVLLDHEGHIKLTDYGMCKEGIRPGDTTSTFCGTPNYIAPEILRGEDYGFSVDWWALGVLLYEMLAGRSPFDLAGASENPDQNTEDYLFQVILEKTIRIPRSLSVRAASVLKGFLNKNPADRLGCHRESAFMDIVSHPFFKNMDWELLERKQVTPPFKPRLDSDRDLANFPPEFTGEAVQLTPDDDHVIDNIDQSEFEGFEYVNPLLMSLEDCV

B1: His-Par-3 PDZ2 (domain or fragment, Drosophila melanogaster, UniProt O96782 444-533, looked up)
chain: QIMLKKGPNGLGFSVTTRDNPAGAHCPIYIKNILPRGAAIEDGRLKPGDRLLEVDGTPMTGKTQTDVVAILRGMPAGATVRIVVSRQQEL
notes: Par-3 (Bazooka), Drosophila melanogaster, PDZ2, residues 444-533, from pET19; source: E. coli BL21-DE3, His-purified
B2: GST-Cdc42^Q61L (natural protein)
chain: not shown
notes: Cdc42, Drosophila melanogaster, residues 1-191 with Q61L, from pGEX; Nucleotide state is not described; Q61L is called constitutively active; also called GST-fused Cdc42Q61L; solid phase Cdc42^Q61L; source: E. coli BL21-DE3, lysate adsorbed to glutathione resin and washed; not shown: GST, N-terminal, kept
B3: MBP-Par-3 PDZ1-APM ΔPDZ1 (domain or fragment, Drosophila melanogaster, UniProt O96782 393-987, looked up)
chain: LRGDRNRRQQRDSKVADMVEVATVSPTRKPHAAPVGTSLQVANTRKLGRKIQIMLKKGPNGLGFSVTTRDNPAGAHCPIYIKNILPRGAAIEDGRLKPGDRLLEVDGTPMTGKTQTDVVAILRGMPAGATVRIVVSRQQELAEQADQPAEKSAGVAVAPSVAPPAVPAAAAPAPPIPVQKSSSARSLFTHQQQSQLNESQHFIDAGSESAASNDSLPPSSNSWHSREELTLHIPVHDTEKAGLGVSVKGKTCSNLNASGSSASSGSNGLMKHDGDLGIFVKNVIHGGAASRDGRLRMNDQLLSVNGVSLRGQNNAEAMETLRRAMVNTPGKHPGTITLLVGRKILRSASSSDILDHSNSHSHSHSNSSGGSNSNGSGNNNNSSSNASDNSGATVIYLSPEKREQRCNGGGGGGSAGNEMNRWSNPVLDRLTGGICSSNSAQPSSQQSHQQQPHPSQQQQQQRRLPAAPVCSSAALRNESYYMATNDNWSPAQMHLMTAHGNTALLIEDDAEPMSPTLPARPHDGQHCNTSSANPSQNLAVGNQGPPINTVPGTPSTSSNFDATYSSQLSLETNSGVEHFSRDALGRRSISEKHHA
notes: Par-3 (Bazooka), Drosophila melanogaster, residues 393-987, from pMAL Par-3 393-987-His; source: E. coli BL21-DE3, His-purified
B4: His-Par-3 BR-PDZ2 (domain or fragment, Drosophila melanogaster, UniProt O96782 426-533, looked up)
chain: PVGTSLQVANTRKLGRKIQIMLKKGPNGLGFSVTTRDNPAGAHCPIYIKNILPRGAAIEDGRLKPGDRLLEVDGTPMTGKTQTDVVAILRGMPAGATVRIVVSRQQEL
notes: Par-3 (Bazooka), Drosophila melanogaster, basic region and PDZ2, residues 426-533, from pET19; source: E. coli BL21-DE3, His-purified
B5: His-Par-6 CRIB-PDZ (domain or fragment, Drosophila melanogaster, UniProt O97111 130-255, looked up)
chain: KTKAPSISIPHDFRQVSAIIDVDIVPETHRRVRLLKHGSDKPLGFYIRDGTSVRVTASGLEKQPGIFISRLVPGGLAESTGLLAVNDEVIEVNGIEVAGKTLDQVTDMMVANSSNLIITVKPANQR
notes: Par-6, Drosophila melanogaster, CRIB-PDZ, residues 130-255, from pBH; chosen because the methods name GST-Cdc42^Q61L as the solid phase; source: E. coli BL21-DE3, His-purified
B6: MBP-Par-3 PDZ1-APM ΔPDZ3 (domain or fragment, Drosophila melanogaster, UniProt O96782 309-987, looked up)
chain: DGEMLLIINEYGSPLGLTALPDKEHGGGLLVQHVEPGSRAERGQLRRDDRILEINGIKLIGLTESQVQEQLRRALESSELRVRVLRGDRNRRQQRDSKVADMVEVATVSPTRKPHAAPVGTSLQVANTRKLGRKIQIMLKKGPNGLGFSVTTRDNPAGAHCPIYIKNILPRGAAIEDGRLKPGDRLLEVDGTPMTGKTQTDVVAILRGMPAGATVRIVVSRQQELAEQADQPAEKSAGVAVAPSVAPPAVPAAAAPAPPIPVQKSSSARSLFTHQQQSQLNESQHFIDAGSESAASNDSLPPSSNSWSSDILDHSNSHSHSHSNSSGGSNSNGSGNNNNSSSNASDNSGATVIYLSPEKREQRCNGGGGGGSAGNEMNRWSNPVLDRLTGGICSSNSAQPSSQQSHQQQPHPSQQQQQQRRLPAAPVCSSAALRNESYYMATNDNWSPAQMHLMTAHGNTALLIEDDAEPMSPTLPARPHDGQHCNTSSANPSQNLAVGNQGPPINTVPGTPSTSSNFDATYSSQLSLETNSGVEHFSRDALGRRSISEKHHA
notes: Par-3 (Bazooka), Drosophila melanogaster, residues 309-987 with 616-741 deleted, from pMAL Par-3 309-987 Δ616-741-His; source: E. coli BL21-DE3, His-purified
B7: MBP-Par-3 PDZ1-APM (domain or fragment, Drosophila melanogaster, UniProt O96782 309-987, looked up)
chain: DGEMLLIINEYGSPLGLTALPDKEHGGGLLVQHVEPGSRAERGQLRRDDRILEINGIKLIGLTESQVQEQLRRALESSELRVRVLRGDRNRRQQRDSKVADMVEVATVSPTRKPHAAPVGTSLQVANTRKLGRKIQIMLKKGPNGLGFSVTTRDNPAGAHCPIYIKNILPRGAAIEDGRLKPGDRLLEVDGTPMTGKTQTDVVAILRGMPAGATVRIVVSRQQELAEQADQPAEKSAGVAVAPSVAPPAVPAAAAPAPPIPVQKSSSARSLFTHQQQSQLNESQHFIDAGSESAASNDSLPPSSNSWHSREELTLHIPVHDTEKAGLGVSVKGKTCSNLNASGSSASSGSNGLMKHDGDLGIFVKNVIHGGAASRDGRLRMNDQLLSVNGVSLRGQNNAEAMETLRRAMVNTPGKHPGTITLLVGRKILRSASSSDILDHSNSHSHSHSNSSGGSNSNGSGNNNNSSSNASDNSGATVIYLSPEKREQRCNGGGGGGSAGNEMNRWSNPVLDRLTGGICSSNSAQPSSQQSHQQQPHPSQQQQQQRRLPAAPVCSSAALRNESYYMATNDNWSPAQMHLMTAHGNTALLIEDDAEPMSPTLPARPHDGQHCNTSSANPSQNLAVGNQGPPINTVPGTPSTSSNFDATYSSQLSLETNSGVEHFSRDALGRRSISEKHHA
notes: Par-3 (Bazooka), Drosophila melanogaster, residues 309-987 (PDZ1 to the aPKC phosphorylation motif), from pMAL Par-3 309-987-His; also called MBP-Par-3 PDZ1-APM-His; Bazooka; source: E. coli BL21-DE3; His-purified (soluble phase) or lysate adsorbed to amylose resin and washed (solid phase); not shown: MBP, N-terminal, kept
B8: GST-Par-3 PDZ3 (domain or fragment, Drosophila melanogaster, UniProt O96782 616-741, looked up)
chain: HSREELTLHIPVHDTEKAGLGVSVKGKTCSNLNASGSSASSGSNGLMKHDGDLGIFVKNVIHGGAASRDGRLRMNDQLLSVNGVSLRGQNNAEAMETLRRAMVNTPGKHPGTITLLVGRKILRSAS
notes: Par-3 (Bazooka), Drosophila melanogaster, PDZ3, residues 616-741, from pGEX; source: E. coli BL21-DE3, lysate adsorbed to glutathione resin and washed; not shown: GST, N-terminal, kept

Tests used:
Conditions in all cases: both partners purified
[1] = target: T1, Par complex; test: pull-down; GST-fused protein on glutathione resin (from bacterial lysate, washed 4x); soluble purified proteins added, 60 min at room temperature; 20 mM Hepes pH 7.5, 100 mM NaCl, 5 mM MgCl2, 0.5% Tween-20, 1 mM DTT, 200 uM ATP; Coomassie-stained gel
[2] = target: T1, Par complex; test: supernatant depletion; GST-Cdc42^Q61L on GSH resin (ligand), soluble Par complex (receptor), 60 min at room temperature; 20 mM Hepes pH 7.5, 100 mM NaCl, 5 mM MgCl2, 0.5% Tween-20, 1 mM DTT, 200 uM ATP; KD from the fraction depleted at one dilution, in sextuplicate
[3] = target: B2; test: supernatant depletion; Cdc42 with Par-6 CRIB-PDZ (Figure S1); the text does not say which of the two was on the resin; buffer as for the other supernatant depletion assays
[4] = target: T1, Par complex; test: supernatant depletion; MBP-Par-3 PDZ1-APM on amylose resin (ligand), soluble Par complex (receptor), 10 min at room temperature; 20 mM Hepes pH 7.5, 100 mM NaCl, 5 mM MgCl2, 0.5% Tween-20, 1 mM DTT, 200 uM ATP; KD from the fraction depleted at one dilution, in sextuplicate

Chain of GST-Cdc42^Q61L (P40793 whole entry Q61L, the tested form may be a part): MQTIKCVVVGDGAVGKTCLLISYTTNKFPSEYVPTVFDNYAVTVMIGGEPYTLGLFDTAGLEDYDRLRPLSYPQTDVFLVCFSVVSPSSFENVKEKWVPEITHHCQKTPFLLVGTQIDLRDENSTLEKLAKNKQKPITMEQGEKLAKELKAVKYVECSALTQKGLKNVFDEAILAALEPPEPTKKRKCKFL

Binder | binding result [1] | further results
B1 | binds | –
B2 | – | Kd [2]: 5400 nM
B3 | binds | –
B4 | binds | –
B5 | – | Kd [3]: 2300 nM
B6 | binds | –
B7 | – | Kd [4]: 600 nM
B8 | binds | –
